In the supplement of paper PMC9112550, “Optimization of the antimicrobial peptide Bac7 by deep mutational scanning” (BMC Biology, 2022):
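Note: peptides expressed intracellularly from a pBAD plasmid library in pooled LB shake-flask culture, induced with 0.3% L-arabinose, DNA abundance read by NGS, three biological replicates, DESeq2 with apeglm shrinkage.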

What follows are sequences tested on Escherichia coli TOP10 (assay: shrunken log2 fold change of peptide-encoding DNA abundance (4.5 h post-induction vs induction); higher = less antimicrobial activity (less host growth inhibition)). Settings: time post-induction: 4.5 h; library: site-saturation at positions 5, 18, 19, 20.
RRIRWRPPRLPRPRPRPEALPRP was tested, and the “shrunken log2 fold change” value was 0.174. In the case of RRIRERPPRLPRPRPRPKPNPRP, the “shrunken log2 fold change” value is reported as 0.0803. RRIRGRPPRLPRPRPRPGNWPRP was tested, and the “shrunken log2 fold change” value was 0.541. For RRIRLRPPRLPRPRPRPTMLPRP, the “shrunken log2 fold change” value was -0.335. For RRIRIRPPRLPRPRPRPLCIPRP, the “shrunken log2 fold change” value was -0.484. In the case of RRIRPRPPRLPRPRPRPVPVPRP, the “shrunken log2 fold change” value is reported as 0.136. In the case of RRIRNRPPRLPRPRPRPPDCPRP, the “shrunken log2 fold change” value is reported as 0.036. In the case of RRIRTRPPRLPRPRPRPNITPRP, the “shrunken log2 fold change” value is reported as -0.664. RRIRPRPPRLPRPRPRPKVLPRP was tested, and the “shrunken log2 fold change” value was 0.038. With RRIRCRPPRLPRPRPRPVFPPRP the “shrunken log2 fold change” value was -0.15. For RRIRSRPPRLPRPRPRPNETPRP, the “shrunken log2 fold change” value was -0.198. RRIRLRPPRLPRPRPRPAWDPRP was tested, and the “shrunken log2 fold change” value was 0.0108. For RRIRRRPPRLPRPRPRPWNVPRP, the “shrunken log2 fold change” value was 0.00231. For RRIRFRPPRLPRPRPRPQDAPRP, the “shrunken log2 fold change” value was -0.0849. RRIRGRPPRLPRPRPRPNASPRP was tested, and the “shrunken log2 fold change” value was 0.496. RRIRHRPPRLPRPRPRPWSSPRP was tested, and the “shrunken log2 fold change” value was -0.116. With RRIRNRPPRLPRPRPRPNNIPRP the “shrunken log2 fold change” value was -0.551. For RRIRNRPPRLPRPRPRPQANPRP, the “shrunken log2 fold change” value was 0.202. With RRIRLRPPRLPRPRPRPRMDPRP the “shrunken log2 fold change” value was -0.106. In the case of RRIRPRPPRLPRPRPRPCEGPRP, the “shrunken log2 fold change” value is reported as 0.156. For RRIRIRPPRLPRPRPRPKVAPRP, the “shrunken log2 fold change” value was 0.283. In the case of RRIRDRPPRLPRPRPRPAKPPRP, the “shrunken log2 fold change” value is reported as 0.419. For RRIRRRPPRLPRPRPRPGPVPRP, the “shrunken log2 fold change” value was 0.332. With RRIRGRPPRLPRPRPRPPHQPRP the “shrunken log2 fold change” value was 0.806. RRIRYRPPRLPRPRPRPCGCPRP was tested, and the “shrunken log2 fold change” value was -0.0582. With RRIRIRPPRLPRPRPRPPEDPRP the “shrunken log2 fold change” value was 0.324. In the case of RRIRARPPRLPRPRPRPSSWPRP, the “shrunken log2 fold change” value is reported as 0.158. With RRIRCRPPRLPRPRPRPQDIPRP the “shrunken log2 fold change” value was -0.213. For RRIRCRPPRLPRPRPRPPDQPRP, the “shrunken log2 fold change” value was 0.581. In the case of RRIRPRPPRLPRPRPRPFSGPRP, the “shrunken log2 fold change” value is reported as -0.478. In the case of RRIRRRPPRLPRPRPRPIIYPRP, the “shrunken log2 fold change” value is reported as -0.0798. For RRIRNRPPRLPRPRPRPTNKPRP, the “shrunken log2 fold change” value was -0.468. With RRIRPRPPRLPRPRPRPQASPRP the “shrunken log2 fold change” value was -0.137. RRIRFRPPRLPRPRPRPYNHPRP was tested, and the “shrunken log2 fold change” value was -1.2. RRIRIRPPRLPRPRPRPMETPRP was tested, and the “shrunken log2 fold change” value was -0.0335. For RRIRHRPPRLPRPRPRPQKGPRP, the “shrunken log2 fold change” value was -0.0617. With RRIRIRPPRLPRPRPRPDLYPRP the “shrunken log2 fold change” value was -0.408. With RRIRFRPPRLPRPRPRPCLWPRP the “shrunken log2 fold change” value was -0.0174. In the case of RRIRKRPPRLPRPRPRPHEQPRP, the “shrunken log2 fold change” value is reported as -0.00968. With RRIRWRPPRLPRPRPRPIPLPRP the “shrunken log2 fold change” value was -0.121. In the case of RRIRDRPPRLPRPRPRPGDDPRP, the “shrunken log2 fold change” value is reported as 0.636. In the case of RRIRQRPPRLPRPRPRPTWMPRP, the “shrunken log2 fold change” value is reported as -0.262. RRIRWRPPRLPRPRPRPCMLPRP was tested, and the “shrunken log2 fold change” value was -0.215. For RRIRERPPRLPRPRPRPGAGPRP, the “shrunken log2 fold change” value was 0.395. For RRIRRRPPRLPRPRPRPQIEPRP, the “shrunken log2 fold change” value was 0.694. In the case of RRIRNRPPRLPRPRPRPTGSPRP, the “shrunken log2 fold change” value is reported as 0.1. With RRIRARPPRLPRPRPRPKKPPRP the “shrunken log2 fold change” value was 0.0922. With RRIRGRPPRLPRPRPRPNSVPRP the “shrunken log2 fold change” value was -0.0052. RRIRKRPPRLPRPRPRPYSLPRP was tested, and the “shrunken log2 fold change” value was -0.0434. RRIRVRPPRLPRPRPRPEDNPRP was tested, and the “shrunken log2 fold change” value was -0.184. RRIRFRPPRLPRPRPRPGMPPRP was tested, and the “shrunken log2 fold change” value was -0.0207. With RRIRWRPPRLPRPRPRPPNIPRP the “shrunken log2 fold change” value was -0.446. In the case of RRIRGRPPRLPRPRPRPWDPPRP, the “shrunken log2 fold change” value is reported as -0.11. In the case of RRIRTRPPRLPRPRPRPMHHPRP, the “shrunken log2 fold change” value is reported as -0.00407. For RRIRKRPPRLPRPRPRPHGHPRP, the “shrunken log2 fold change” value was -0.248. With RRIRDRPPRLPRPRPRPRFSPRP the “shrunken log2 fold change” value was -0.037. With RRIRPRPPRLPRPRPRPACAPRP the “shrunken log2 fold change” value was 0.593. RRIRDRPPRLPRPRPRPNSGPRP was tested, and the “shrunken log2 fold change” value was -0.269. For RRIRERPPRLPRPRPRPYWLPRP, the “shrunken log2 fold change” value was -0.294. In the case of RRIRKRPPRLPRPRPRPTEGPRP, the “shrunken log2 fold change” value is reported as 0.869. RRIRERPPRLPRPRPRPLPLPRP was tested, and the “shrunken log2 fold change” value was -0.0754. RRIRQRPPRLPRPRPRPHNVPRP was tested, and the “shrunken log2 fold change” value was -0.0684. For RRIRHRPPRLPRPRPRPNRVPRP, the “shrunken log2 fold change” value was -0.672. In the case of RRIRIRPPRLPRPRPRPFKEPRP, the “shrunken log2 fold change” value is reported as -0.263. In the case of RRIRWRPPRLPRPRPRPINLPRP, the “shrunken log2 fold change” value is reported as -0.748. For RRIRRRPPRLPRPRPRPCQCPRP, the “shrunken log2 fold change” value was 0.0262. In the case of RRIRYRPPRLPRPRPRPILGPRP, the “shrunken log2 fold change” value is reported as -0.00192. RRIRARPPRLPRPRPRPSKPPRP was tested, and the “shrunken log2 fold change” value was -0.281. With RRIRCRPPRLPRPRPRPHMVPRP the “shrunken log2 fold change” value was -0.149. In the case of RRIRRRPPRLPRPRPRPDNTPRP, the “shrunken log2 fold change” value is reported as 0.876. For RRIRARPPRLPRPRPRPVRCPRP, the “shrunken log2 fold change” value was 0.966. With RRIRPRPPRLPRPRPRPSCHPRP the “shrunken log2 fold change” value was -0.31. In the case of RRIRARPPRLPRPRPRPNPKPRP, the “shrunken log2 fold change” value is reported as 0.372. In the case of RRIRNRPPRLPRPRPRPKPCPRP, the “shrunken log2 fold change” value is reported as 0.159. RRIRWRPPRLPRPRPRPHHHPRP was tested, and the “shrunken log2 fold change” value was -0.428. For RRIRPRPPRLPRPRPRPISSPRP, the “shrunken log2 fold change” value was -0.0101. RRIRMRPPRLPRPRPRPCSCPRP was tested, and the “shrunken log2 fold change” value was 0.183. In the case of RRIRKRPPRLPRPRPRPVKKPRP, the “shrunken log2 fold change” value is reported as 0.505. RRIRYRPPRLPRPRPRPCLTPRP was tested, and the “shrunken log2 fold change” value was -0.125. With RRIRRRPPRLPRPRPRPPRLPRP the “shrunken log2 fold change” value was 1.1. RRIRFRPPRLPRPRPRPAVQPRP was tested, and the “shrunken log2 fold change” value was -0.0142. For RRIRLRPPRLPRPRPRPFGLPRP, the “shrunken log2 fold change” value was -0.114. For RRIRTRPPRLPRPRPRPNPQPRP, the “shrunken log2 fold change” value was 0.125. RRIRHRPPRLPRPRPRPCNFPRP was tested, and the “shrunken log2 fold change” value was -0.74. In the case of RRIRSRPPRLPRPRPRPVGLPRP, the “shrunken log2 fold change” value is reported as 0.107. For RRIRPRPPRLPRPRPRPQQWPRP, the “shrunken log2 fold change” value was 0.182. For RRIRTRPPRLPRPRPRPGDSPRP, the “shrunken log2 fold change” value was 0.152. In the case of RRIRLRPPRLPRPRPRPYSAPRP, the “shrunken log2 fold change” value is reported as -0.693. In the case of RRIRERPPRLPRPRPRPTSDPRP, the “shrunken log2 fold change” value is reported as -0.0201. In the case of RRIRPRPPRLPRPRPRPVPPPRP, the “shrunken log2 fold change” value is reported as 0.26. For RRIRDRPPRLPRPRPRPCGHPRP, the “shrunken log2 fold change” value was 0.232. With RRIRMRPPRLPRPRPRPESTPRP the “shrunken log2 fold change” value was 2.28. For RRIRFRPPRLPRPRPRPIVWPRP, the “shrunken log2 fold change” value was 0.0539. In the case of RRIRYRPPRLPRPRPRPDSYPRP, the “shrunken log2 fold change” value is reported as -0.0836. RRIRLRPPRLPRPRPRPHDTPRP was tested, and the “shrunken log2 fold change” value was -0.18. RRIRTRPPRLPRPRPRPLPLPRP was tested, and the “shrunken log2 fold change” value was -0.107. With RRIRFRPPRLPRPRPRPASEPRP the “shrunken log2 fold change” value was 0.21. With RRIRGRPPRLPRPRPRPDRSPRP the “shrunken log2 fold change” value was 0.23. RRIRWRPPRLPRPRPRPWATPRP was tested, and the “shrunken log2 fold change” value was 0.168. For RRIRVRPPRLPRPRPRPLALPRP, the “shrunken log2 fold change” value was -0.181. RRIRWRPPRLPRPRPRPQMMPRP was tested, and the “shrunken log2 fold change” value was -0.0594. With RRIRCRPPRLPRPRPRPFRQPRP the “shrunken log2 fold change” value was -0.0498. RRIRNRPPRLPRPRPRPLPTPRP was tested, and the “shrunken log2 fold change” value was -0.0778. RRIRDRPPRLPRPRPRPYMHPRP was tested, and the “shrunken log2 fold change” value was -0.275. RRIRMRPPRLPRPRPRPTCCPRP was tested, and the “shrunken log2 fold change” value was 0.213. RRIRVRPPRLPRPRPRPNRNPRP was tested, and the “shrunken log2 fold change” value was -0.238. With RRIRCRPPRLPRPRPRPWLYPRP the “shrunken log2 fold change” value was -0.246. RRIRPRPPRLPRPRPRPFGTPRP was tested, and the “shrunken log2 fold change” value was -0.444. In the case of RRIRVRPPRLPRPRPRPTRWPRP, the “shrunken log2 fold change” value is reported as 0.173. RRIRKRPPRLPRPRPRPDTYPRP was tested, and the “shrunken log2 fold change” value was -0.0205. RRIRDRPPRLPRPRPRPHFRPRP was tested, and the “shrunken log2 fold change” value was -0.121. RRIRPRPPRLPRPRPRPSTRPRP was tested, and the “shrunken log2 fold change” value was -0.0318. In the case of RRIRHRPPRLPRPRPRPMLSPRP, the “shrunken log2 fold change” value is reported as -0.0786. For RRIRSRPPRLPRPRPRPMVCPRP, the “shrunken log2 fold change” value was 0.188. With RRIRPRPPRLPRPRPRPNHMPRP the “shrunken log2 fold change” value was -0.319. For RRIRQRPPRLPRPRPRPLPCPRP, the “shrunken log2 fold change” value was -0.00831. RRIRQRPPRLPRPRPRPVWMPRP was tested, and the “shrunken log2 fold change” value was -0.00887. For RRIRGRPPRLPRPRPRPIVGPRP, the “shrunken log2 fold change” value was 0.00341. RRIRTRPPRLPRPRPRPMTLPRP was tested, and the “shrunken log2 fold change” value was -0.028. RRIRHRPPRLPRPRPRPSCVPRP was tested, and the “shrunken log2 fold change” value was -0.308. For RRIRWRPPRLPRPRPRPPNHPRP, the “shrunken log2 fold change” value was 0.0941. For RRIRARPPRLPRPRPRPFSGPRP, the “shrunken log2 fold change” value was -0.00374. In the case of RRIRKRPPRLPRPRPRPSRWPRP, the “shrunken log2 fold change” value is reported as 0.639. In the case of RRIRVRPPRLPRPRPRPSGHPRP, the “shrunken log2 fold change” value is reported as -0.185. For RRIRYRPPRLPRPRPRPINMPRP, the “shrunken log2 fold change” value was -0.281.
